According to patent US20090022714A1, “Combination methods of inhibiting tumor growth with a vascular endothelial growth factor receptor antagonist” (ImClone Systems, Inc., priority 2001, published 2009):

Tests used:
HUVEC = experiment: Anti-mitogenic assay, [3H]-TdR, HUVEC (chimeric IgG and scFv); assay type: cell-based, human; conditions: FIG. 24
Experimental: The effect of anti-KDR (VEGFR-2) antibodies on VEGF-stimulated mitogenesis of human endothelial cells was determined with a [^3H]-TdR DNA incorporation assay using HUVEC. […] After 18 hours of incubation, 0.25 μCi of [^3H]-TdR was added to each well and incubated for an additional 4 hours. DNA incorporated radioactivity was determined with a scintillation counter. The data shown in FIG. 24 are representative of at least three separate experiments.

KDR (VEGFR-2) [1] = target: T1, KDR (VEGFR-2) (Homo sapiens, UniProt P35968); experiment: Quantitative KDR binding assay (chimeric IgG and scFv); parameters: the cDNA for KDR (VEGFR-2) extracellular domain is fused in-frame with the cDNA for human placental AP; made in house; host or cells: stably transfected NIH 3T3 cells, purified from supernatant on anti-AP antibody; conditions: ELISA, FIG. 20
Experimental: Various amounts of antibodies were added to KDR (VEGFR-2)-coated 96-well Maxi-sorp microtiter plates (Nunc. Danmark) and incubated at room temperature for 1 h, after which the plates were washed 3 times with PBS containing 0.1% Tween-20. The plates were then incubated at RT for 1 h with 100 ul of mouse anti-E tag antibody-HRP conjugate (Pharmacia Biotech) for the scFv, or rabbit anti-human IgG Fc specific antibody-HRP conjugate (Cappel, Organon Teknika Corp.) for the chimeric IgG. The plates were washed 5 times, TMB peroxidase substrate (KPL, Gaithersburg, Md.) added, and the OD at 450 nm read using a microplate reader (Molecular Device, Sunnyvale, Calif.).
Target sequence in this assay (P35968 20-764 limits assumed): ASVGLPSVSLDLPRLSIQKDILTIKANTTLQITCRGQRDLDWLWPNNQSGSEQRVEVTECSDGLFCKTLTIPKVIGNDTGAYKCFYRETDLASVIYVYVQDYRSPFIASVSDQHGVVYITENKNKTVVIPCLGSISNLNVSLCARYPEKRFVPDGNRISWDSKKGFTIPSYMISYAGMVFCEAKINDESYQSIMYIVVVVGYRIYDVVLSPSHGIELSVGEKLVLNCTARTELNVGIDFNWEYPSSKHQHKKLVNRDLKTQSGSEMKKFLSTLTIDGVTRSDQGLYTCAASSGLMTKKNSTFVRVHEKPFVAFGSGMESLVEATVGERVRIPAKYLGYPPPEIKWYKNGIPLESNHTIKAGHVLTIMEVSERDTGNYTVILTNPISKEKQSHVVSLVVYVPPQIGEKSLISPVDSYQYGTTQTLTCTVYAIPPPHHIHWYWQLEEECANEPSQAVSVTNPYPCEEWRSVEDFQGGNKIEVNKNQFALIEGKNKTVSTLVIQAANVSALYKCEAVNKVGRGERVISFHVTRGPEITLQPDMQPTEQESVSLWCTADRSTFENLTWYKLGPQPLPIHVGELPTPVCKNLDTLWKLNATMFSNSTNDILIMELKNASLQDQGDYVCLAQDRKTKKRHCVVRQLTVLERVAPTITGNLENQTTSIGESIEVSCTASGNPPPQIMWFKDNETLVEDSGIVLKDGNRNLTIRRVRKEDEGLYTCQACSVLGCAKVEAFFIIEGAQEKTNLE

KDR (VEGFR-2) [2] = target: T1, KDR (VEGFR-2); experiment: KDR phosphorylation assay in HUVEC (chimeric IgG); assay type: cell-based; parameters: endogenous in cells; host or cells: HUVEC, early passage
Experimental: (§1) Subconfluent HUVEC cells were grown in growth factor depleted EBM-2 medium for 24 to 48 h prior to experimentation. […] The cells were then lysed in lysis buffer ([…], 150 mM NaCl, 1% NP-40, 2 mM EDTA, 0.25% sodium deoxycholate, 1 mM PMSF, 1 μg/ml leupeptin, 1 μg/ml pepstatin, 10 μg/ml aprotinin, pH 7.5) and the cell lysate used for both the KDR (VEGFR-2) and MAP kinase phosphorylation assays. The KDR (VEGFR-2) receptor was immunoprecipitated from the cell lysates with Protein A Sepharose beads (Santa Cruz Biotechnology, Inc., CA) coupled to an anti-KDR (VEGFR-2) antibody, Mab 4.13 (ImClone Systems). Proteins were resolved with SDS-PAGE and subjected to Western blot analysis. To detect KDR (VEGFR-2) phosphorylation, blots were probed with an antiphosphotyrosine Mab, PY20 (ICN Biomedicals, Inc. Aurora, Ohio). For the MAP kinase activity assay, cell lysates were resolved with SDS-PAGE followed by Western blot analysis using a phospho-specific MAP kinase antibody (New England BioLabs, Beverly, Mass.). All signals were detected using ECL (Amersham, Arlington Heights, Ill.). In both assays, the blots were reprobed with a polyclonal anti-KDR (VEGFR-2) antibody (ImClone Systems) to assure that equal amount of protein was loaded in each lane of SDS-PAGE gels.
Target sequence in this assay (P35968 20-1356): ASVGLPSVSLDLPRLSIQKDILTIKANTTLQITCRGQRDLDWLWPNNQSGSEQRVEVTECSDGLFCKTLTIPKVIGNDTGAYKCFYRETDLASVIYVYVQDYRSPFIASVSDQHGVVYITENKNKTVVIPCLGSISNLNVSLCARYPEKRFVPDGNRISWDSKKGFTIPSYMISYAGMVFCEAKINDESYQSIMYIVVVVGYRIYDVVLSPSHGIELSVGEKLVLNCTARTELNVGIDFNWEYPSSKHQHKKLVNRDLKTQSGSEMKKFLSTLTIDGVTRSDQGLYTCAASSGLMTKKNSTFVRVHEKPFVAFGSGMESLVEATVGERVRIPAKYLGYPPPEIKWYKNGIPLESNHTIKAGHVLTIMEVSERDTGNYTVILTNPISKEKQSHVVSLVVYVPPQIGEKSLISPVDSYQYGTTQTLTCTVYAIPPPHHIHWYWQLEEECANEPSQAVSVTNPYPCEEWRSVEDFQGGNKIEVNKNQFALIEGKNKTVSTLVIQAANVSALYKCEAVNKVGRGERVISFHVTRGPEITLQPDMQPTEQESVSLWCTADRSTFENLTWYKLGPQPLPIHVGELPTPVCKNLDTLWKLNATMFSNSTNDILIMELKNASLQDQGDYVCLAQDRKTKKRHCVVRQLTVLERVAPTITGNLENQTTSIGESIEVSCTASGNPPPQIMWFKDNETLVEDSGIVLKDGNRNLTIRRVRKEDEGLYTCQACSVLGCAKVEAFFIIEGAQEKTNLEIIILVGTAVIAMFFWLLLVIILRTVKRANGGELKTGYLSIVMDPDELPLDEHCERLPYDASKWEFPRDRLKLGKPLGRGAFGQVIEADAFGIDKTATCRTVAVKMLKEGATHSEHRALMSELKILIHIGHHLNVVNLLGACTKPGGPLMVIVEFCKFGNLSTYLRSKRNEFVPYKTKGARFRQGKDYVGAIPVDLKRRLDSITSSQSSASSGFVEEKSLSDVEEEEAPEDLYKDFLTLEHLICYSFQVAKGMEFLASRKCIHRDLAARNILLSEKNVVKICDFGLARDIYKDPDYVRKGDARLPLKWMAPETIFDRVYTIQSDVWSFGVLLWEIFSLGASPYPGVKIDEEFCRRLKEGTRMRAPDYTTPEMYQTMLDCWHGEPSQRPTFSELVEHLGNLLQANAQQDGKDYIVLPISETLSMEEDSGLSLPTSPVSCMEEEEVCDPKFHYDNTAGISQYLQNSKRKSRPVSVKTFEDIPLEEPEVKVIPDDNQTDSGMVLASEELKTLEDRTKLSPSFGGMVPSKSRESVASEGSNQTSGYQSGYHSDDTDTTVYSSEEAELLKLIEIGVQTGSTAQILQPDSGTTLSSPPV

[3] = target: T2, immobilized KDR (VEGFR-2) receptor (Homo sapiens, UniProt P35968); experiment: Competitive VEGF binding assay, second assay (radiolabeled VEGF165 to immobilized KDR); conditions: FIG. 23
T2 construct: the cDNA for KDR (VEGFR-2) extracellular domain is fused in-frame with the cDNA for human placental AP; human placental alkaline phosphatase (AP), inferred for these assays; made in house; host or cells: NIH 3T3 (inferred: the only KDR protein whose making is described)

[4] = test system: KDR (VEGFR-2)-expressing HUVEC; experiment: FACS analysis of c-p1C11 on HUVEC; assay type: binding, human; conditions: 5 μg/ml
Experimental: Early passage HUVEC cells were grown in growth factor-depleted EBM-2 medium overnight to induce the expression of KDR (VEGFR-2). The cells were harvested and washed three times with PBS, incubated with c-p1C11 IgG (5 μg/ml) for 1 h at 4° C., followed by incubation with a FITC labeled rabbit anti-human Fc antibody (Capper, Organon Teknika Corp., West Chester, Pa.) for an additional 60 min. The cells were washed and analyzed by a flow cytometer (Model EPICS®, Coulter Corp., Edison, N.J.).

[5] = target: T3, KDR (VEGFR-2) binding to VEGF (Homo sapiens, UniProt P35968); experiment: Competitive VEGF binding assay, first assay (KDR-AP to immobilized VEGF165); conditions: FIG. 22
T3 construct: the cDNA for KDR (VEGFR-2) extracellular domain is fused in-frame with the cDNA for human placental AP; made in house; host or cells: stably transfected NIH 3T3 cells, purified from supernatant on anti-AP antibody
Experimental: In the first assay, various amounts of antibodies were mixed with a fixed amount of KDR (VEGFR-2)-AP (50 ng) and incubated at room temperature for 1 h.

p44/p42 MAP kinases = experiment: MAP kinase phosphorylation assay in HUVEC (chimeric IgG); assay type: cell-based, human
Experimental: as §1

KDR (VEGFR-2) [6] = target: T1, KDR (VEGFR-2); experiment: BIAcore analysis of p1C11 scFv, c-p1C11 and VEGF; assay type: binding; parameters: the cDNA for KDR (VEGFR-2) extracellular domain is fused in-frame with the cDNA for human placental AP; made in house; host or cells: stably transfected NIH 3T3 cells, purified from supernatant on anti-AP antibody; conditions: BIAcore, Table 2
Experimental: The binding kinetics of antibodies to KDR (VEGFR-2) were measured using BIAcore biosensor (Pharmacia Biosensor). […] Sensorgrams were obtained at each concentration and were evaluated using a program, BIA Evaluation 2.0, to determine the rate constants kon and koff. Kd was calculated as the ratio of rate constants koff/kon.
Target sequence in this assay (P35968 20-764 limits assumed): as the sequence (P35968 20-764 limits assumed) above

KDR (VEGFR-2) [7] = target: T1, KDR (VEGFR-2); experiment: Direct binding assay of Fab to KDR; parameters: the cDNA for KDR (VEGFR-2) extracellular domain is fused in-frame with the cDNA for human placental AP; made in house; host or cells: stably transfected NIH 3T3 cells, purified from supernatant on anti-AP antibody
Experimental: In a direct binding assay, various amounts of soluble Fab proteins were added to KDR (VEGFR-2)-coated 96-well Maxi-sorp microtiter plates and incubated at RT for 1 h, after which the plates were washed 3 times with PBST. The plates were then incubated at RT for 1 h with 100 Φl of a rabbit anti-human Fab antibody-HRP conjugate (Jackson ImmunoResearch Laboratory Inc., West Grove, Pa.). The plates were washed and developed following the procedure described above for the phage ELISA. […] Absorbance at 405 nm was measured to quantify the bound KDR (VEGFR-2)-AP molecules (8).
Target sequence in this assay (P35968 20-764 limits assumed): as above

KDR (VEGFR-2) [8] = target: T1, KDR (VEGFR-2); experiment: BIAcore analysis of soluble Fab; assay type: binding; parameters: the cDNA for KDR (VEGFR-2) extracellular domain is fused in-frame with the cDNA for human placental AP; made in house; host or cells: stably transfected NIH 3T3 cells, purified from supernatant on anti-AP antibody; conditions: mean±SE
Experimental: The binding kinetics of soluble Fab proteins to KDR (VEGFR-2) were measured by surface plasmon resonance using a BIAcore biosensor (Pharmacia Biosensor). KDR (VEGFR-2)-AP fusion protein was immobilized onto a sensor chip and soluble Fab proteins were injected at concentrations ranging from 1.5 nM to 100 nM. Sensorgrams were obtained at each concentration and were evaluated using a program, BIA Evaluation 2.0, to determine the rate constants kon and koff Kd was calculated from the ratio of rate constants koff/kon.
Target sequence in this assay (P35968 20-764 limits assumed): as above

[9] = test system: KDR (VEGFR-2), KDR (VEGFR-2)(1-3), KDR (VEGFR-2)(3); experiment: Binding epitope mapping with KDR Ig-domain deletion variants; parameters: species or system human
Experimental: The production of KDR (VEGFR-2) extracellular Ig-like domain deletion variants has been previously described (Lu et al. (2000)). In an epitope-mapping assay, full length KDR (VEGFR-2)-AP, Ap fusions of two KDR (VEGFR-2) Ig-domain deletion variants, and Flk-1-AP were first immobilized onto a 96-well plate (Nunc) using a rabbit anti-AP antibody (DAKO-immunoglobulins, Glostrup, Denmark) as the capture reagent. The plate was then incubated with various anti-KDR (VEGFR-2) Fab proteins at RT for 1 h, followed by incubation with a rabbit anti-human Fab antibody-HRP conjugate. The plate was washed and developed as described above.

Chain of KDR (VEGFR-2), KDR (VEGFR-2)(1-3), KDR (VEGFR-2)(3) (P35968 224-327 limits assumed): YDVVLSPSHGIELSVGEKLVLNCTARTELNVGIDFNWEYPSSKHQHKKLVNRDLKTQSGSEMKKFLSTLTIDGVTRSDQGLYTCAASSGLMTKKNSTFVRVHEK
T3 sequence (P35968 20-764 limits assumed): as the sequence (P35968 20-764 limits assumed) above
T2 sequence (P35968 20-764 limits assumed): as above

| inhibition of VEGF-stimulated phosphorylation (activation) of KDR receptor (KDR (VEGFR-2) [2]; VEGF165 20 ng/ml) | competition with 125I labeled VEGF for binding to immobilized KDR [3] | inhibition of FGF-stimulated activation of p44/p42 MAP kinases (p44/p42 MAP kinases; FGF 10 ng/ml, not shown) | inhibition of VEGF-stimulated activation of p44/p42 MAP kinases (p44/p42 MAP kinases; VEGF165 20 ng/ml) | koff (KDR (VEGFR-2) [6]) | kon (KDR (VEGFR-2) [6]) | efficiency of binding to KDR (KDR (VEGFR-2) [7]) | koff (KDR (VEGFR-2) [8]) | kon (KDR (VEGFR-2) [8]) | Molecule | inhibitory effect on VEGF-stimulated mitogenesis of HUVEC (HUVEC) | direct binding to immobilized KDR (KDR (VEGFR-2) [1]) | direct binding to immobilized KDR (KDR (VEGFR-2) [1]; listed as C-p1C11) | effect of antibody alone on activity of KDR receptor and p44/p42 MAP kinases (KDR (VEGFR-2) [2]; without VEGF) | binding to KDR expressed on early passage HUVEC [4] | blocking of KDR binding to immobilized VEGF [5] | location of binding epitope(s) [9] |
| --- | --- | --- | --- | --- | --- | --- | --- | --- | --- | --- | --- | --- | --- | --- | --- | --- |
| effectively inhibits | efficiently compete | does not inhibit | effectively inhibits | 0.52 10^−4 s^−1 | 0.63 10^5 M^−1s^−1 | – | – | – | c-p1C11: chimeric p1C11 IgG1: p1C11 variable domains with human κ and γ1 constant regions (antibody, V domains shown) VH: QVKLQQSGAELVGSGASVKLSCTTSGFNIKDFYMHWVKQRPEQGLEWIGWIDPENGDSDYAPKFQGKATMTADSSSNTAYLQLSSLTSEDTAVYYCNAYYGDYEGYWGQGTTVTVSS VL: DIELTQSPAIMSASPGEKVTITCSASSSVSYMHWFQQKPGTSPKLWIYSTSNLASGVPARFSGSGSGTSYSLTISRMEAEDAATYYCQQRSSYPFTFGSGTKLEIK | effectively inhibit mitogenesis of HUVEC stimulated by VEGF | binds more efficiently to immobilized KDR (VEGFR-2) than the parent scFv | bind more efficiently to immobilized KDR (VEGFR-2) receptor than the parent scFv | Neither c-p1C11, nor C225 alone has any effects | binds specifically to KDR (VEGFR-2) expressed on early passage HUVEC | block KDR (VEGFR-2) receptor from binding to immobilized VEGF in a dose-dependent manner | – |
| – | – | – | – | – | – | more efficient binders | 4.87 ± 0.18 10^−4 S^−1 | 12.4 ± 2.9 10^4 M^−1S^−1 | D2H2: human anti-KDR (VEGFR-2) VEGF-blocking Fab clone (antibody, V domains shown) VH: EVQLVQSGGGLVKPGGSLRLSCAASGFTFSSYSMNWVRQAPGKGLEWVSSISSSSSYIYYADSVKGRFTISRDNAKDSLYLQMNSLRAEDTAVYYCARVTDAFDIWGQGTMVTVSS VL: DIQLTQSPSSVSASVGDRVTITCRASQGISSRLAWYQQKPGKAPKLLIYAASSLQTGVPSRFSGSGSGTDFTLTISSLQPEDFATYYCQQANRFPPTFGPGTKVDIK | – | – | – | – | – | – | broader binding epitope(s) within KDR (VEGFR-2) Ig domains 1 to 3 |
